# According to article PMC3190738:
# pKd: −log10 of the molar value.
# Target: His-tagged-YFP-PKI-NES
# Assay: fluorescence polarisation
row,pKd,Substance
1,7.60,CRM1 1–1062 + VLV > AAA (from UniProt Q6P5F9 1-1062) (domain or fragment)
2,6.70,CRM1 HEAT 9 loop variant (VLV > AAA) (from UniProt Q6P5F9 1-1071) (natural protein)
3,5.77,CRM1-1–1062 (from UniProt Q6P5F9 1-1062) (domain or fragment)
4,4.81,wild type mouse CRM1 (1–1071) (from UniProt Q6P5F9 1-1071) (natural protein)
